Assay results published in paper PMC7367873, “Dissecting the sequence determinants for dephosphorylation by the catalytic subunits of phosphatases PP1 and PP2A” (Nature Communications, 2020).

B1: MRE11A (protein, UniProt P49959 2-708, looked up)
Double-strand break repair …: STADALDDENTFKILVATDIHLGFMEKDAVRGNDTFVTLDEILRLAQENEVDFILLGGDLFHENKPSRKTLHTCLELLRKYCMGDRPVQFEILSDQSVNFGFSKFPWVNYQDGNLNISIPVFSIHGNHDDPTGADALCALDILSCAGFVNHFGRSMSVEKIDISPVLLQKGSTKIALYGLGSIPDERLYRMFVNKKVTMLRPKEDENSWFNLFVIHQNRSKHGSTNFIPEQFLDDFIDLVIWGHEHECKIAPTKNEQQLFYISQPGSSVVTSLSPGEAVKKHVGLLRIKGRKMNMHKIPLHTVRQFFMEDIVLANHPDIFNPDNPKVTQAIQSFCLEKIEEMLENAERERLGNSHQPEKPLVRLRVDYSGGFEPFSVLRFSQKFVDRVANPKDIIHFFRHREQKEKTGEEINFGKLITKPSEGTTLRVEDLVKQYFQTAEKNVQLSLLTERGMGEAVQEFVDKEEKDAIEELVKYQLEKTQRFLKERHIDALEDKIDEEVRRFRETRQKNTNEEDDEVREAMTRARALRSQSEESASAFSADDLMSIDLAEQMANDSDDSISAATNKGRGRGRGRRGGRGQNSASRGGSQRGRADTGLETSTRSRNSKTAVSASRNMSIIDAFKSTRQQPSRNVTTKNYSEVIEVDESDVEEDIFPTTSKTDQRWSSTSSSKIMSQSQVSKGVDFESSEDDDDDPFMNTSSLRRNRR
B2: QARS (protein, UniProt P47897 2-775, looked up)
Glutamine--tRNA ligase: AALDSLSLFTSLGLSEQKARETLKNSALSAQLREAATQAQQTLGSTIDKATGILLYGLASRLRDTRRLSFLVSYIASKKIHTEPQLSAALEYVRSHPLDPIDTVDFERECGVGVIVTPEQIEEAVEAAINRHRPQLLVERYHFNMGLLMGEARAVLKWADGKMIKNEVDMQVLHLLGPKLEADLEKKFKVAKARLEETDRRTAKDVVENGETADQTLSLMEQLRGEALKFHKPGENYKTPGYVVTPHTMNLLKQHLEITGGQVRTRFPPEPNGILHIGHAKAINFNFGYAKANNGICFLRFDDTNPEKEEAKFFTAICDMVAWLGYTPYKVTYASDYFDQLYAWAVELIRRGLAYVCHQRGEELKGHNTLPSPWRDRPMEESLLLFEAMRKGKFSEGEATLRMKLVMEDGKMDPVAYRVKYTPHHRTGDKWCIYPTYDYTHCLCDSIEHITHSLCTKEFQARRSSYFWLCNALDVYCPVQWEYGRLNLHYAVVSKRKILQLVATGAVRDWDDPRLFTLTALRRRGFPPEAINNFCARVGVTVAQTTMEPHLLEACVRDVLNDTAPRAMAVLESLRVIITNFPAAKSLDIQVPNFPADETKGFHQVPFAPIVFIERTDFKEEPEPGFKRLAWGQPVGLRHTGYVIELQHVVKGPSGCVESLEVTCRRADAGEKPKAFIHWVSQPLMCEVRLYERLFQHKNPEDPTEVPGGFLSDLNLASLHVVDAALVDCSVALAKPFDKFQFERLGYFSVDPDSHQGKLVFNRTVTLKEDPGKV
B3: RAI14 (protein, UniProt Q9P0K7 1-980, looked up)
Ankycorbin: MKSLKAKFRKSDTNEWNKNDDRLLQAVENGDAEKVASLLGKKGASATKHDSEGKTAFHLAAAKGHVECLRVMITHGVDVTAQDTTGHSALHLAAKNSHHECIRKLLQSKCPAESVDSSGKTALHYAAAQGCLQAVQILCEHKSPINLKDLDGNIPLLLAVQNGHSEICHFLLDHGADVNSRNKSGRTALMLACEIGSSNAVEALIKKGADLNLVDSLGYNALHYSKLSENAGIQSLLLSKISQDADLKTPTKPKQHDQVSKISSERSGTPKKRKAPPPPISPTQLSDVSSPRSITSTPLSGKESVFFAEPPFKAEISSIRENKDRLSDSTTGADSLLDISSEADQQDLLSLLQAKVASLTLHNKELQDKLQAKSPKEAEADLSFDSYHSTQTDLGPSLGKPGETSPPDSKSSPSVLIHSLGKSTTDNDVRIQQLQEILQDLQKRLESSEAERKQLQVELQSRRAELVCLNNTEISENSSDLSQKLKETQSKYEEAMKEVLSVQKQMKLGLVSPESMDNYSHFHELRVTEEEINVLKQDLQNALEESERNKEKVRELEEKLVEREKGTVIKPPVEEYEEMKSSYCSVIENMNKEKAFLFEKYQEAQEEIMKLKDTLKSQMTQEASDEAEDMKEAMNRMIDELNKQVSELSQLYKEAQAELEDYRKRKSLEDVTAEYIHKAEHEKLMQLTNVSRAKAEDALSEMKSQYSKVLNELTQLKQLVDAQKENSVSITEHLQVITTLRTAAKEMEEKISNLKEHLASKEVEVAKLEKQLLEEKAAMTDAMVPRSSYEKLQSSLESEVSVLASKLKESVKEKEKVHSEVVQIRSEVSQVKREKENIQTLLKSKEQEVNELLQKFQQAQEELAEMKRYAESSSKLEEDKDKKINEMSKEVTKLKEALNSLSQLSYSTSSSKRQSQQLEALQQQVKQLQNQLAECKKQHQEVISVYRMHLLYAVQGQMDEDVQKVLKQILTMCKNQSQKK
B4: HERC5 (protein, UniProt Q9UII4 1-1024, looked up)
E3 ISG15--protein ligase HERC5: MERRSRRKSRRNGRSTAGKAAATQPAKSPGAQLWLFPSAAGLHRALLRRVEVTRQLCCSPGRLAVLERGGAGVQVHQLLAGSGGARTPKCIKLGKNMKIHSVDQGAEHMLILSSDGKPFEYDNYSMKHLRFESILQEKKIIQITCGDYHSLALSKGGELFAWGQNLHGQLGVGRKFPSTTTPQIVEHLAGVPLAQISAGEAHSMALSMSGNIYSWGKNECGQLGLGHTESKDDPSLIEGLDNQKVEFVACGGSHSALLTQDGLLFTFGAGKHGQLGHNSTQNELRPCLVAELVGYRVTQIACGRWHTLAYVSDLGKVFSFGSGKDGQLGNGGTRDQLMPLPVKVSSSEELKLESHTSEKELIMIAGGNQSILLWIKKENSYVNLKRTIPTLNEGTVKRWIADVETKRWQSTKREIQEIFSSPACLTGSFLRKRRTTEMMPVYLDLNKARNIFKELTQKDWITNMITTCLKDNLLKRLPFHSPPQEALEIFFLLPECPMMHISNNWESLVVPFAKVVCKMSDQSSLVLEEYWATLQESTFSKLVQMFKTAVICQLDYWDESAEENGNVQALLEMLKKLHRVNQVKCQLPESIFQVDELLHRLNFFVEVCRRYLWKMTVDASENVQCCVIFSHFPFIFNNLSKIKLLHTDTLLKIESKKHKAYLRSAAIEEERESEFALRPTFDLTVRRNHLIEDVLNQLSQFENEDLRKELWVSFSGEIGYDLGGVKKEFFYCLFAEMIQPEYGMFMYPEGASCMWFPVKPKFEKKRYFFFGVLCGLSLFNCNVANLPFPLALFKKLLDQMPSLEDLKELSPDLGKNLQTLLDDEGDNFEEVFYIHFNVHWDRNDTNLIPNGSSITVNQTNKRDYVSKYINYIFNDSVKAVYEEFRRGFYKMCDEDIIKLFHPEELKDVIVGNTDYDWKTFEKNARYEPGYNSSHPTIVMFWKAFHKLTLEEKKKFLVFLTGTDRLQMKDLNNMKITFCCPESWNERDPIRALTCFSVLFLPKYSTMETVEEALQEAINNNRGFG
B5: XPO5 (protein, UniProt Q9HAV4 2-1204, looked up)
Exportin-5: AMDQVNALCEQLVKAVTVMMDPNSTQRYRLEALKFCEEFKEKCPICVPCGLRLAEKTQVAIVRHFGLQILEHVVKFRWNGMSRLEKVYLKNSVMELIANGTLNILEEENHIKDALSRIVVEMIKREWPQHWPDMLIELDTLSKQGETQTELVMFILLRLAEDVVTFQTLPPQRRRDIQQTLTQNMERIFSFLLNTLQENVNKYQQVKTDTSQESKAQANCRVGVAALNTLAGYIDWVSMSHITAENCKLLEILCLLLNEQELQLGAAECLLIAVSRKGKLEDRKPLMVLFGDVAMHYILSAAQTADGGGLVEKHYVFLKRLCQVLCALGNQLCALLGADSDVETPSNFGKYLESFLAFTTHPSQFLRSSTQMTWGALFRHEILSRDPLLLAIIPKYLRASMTNLVKMGFPSKTDSPSCEYSRFDFDSDEDFNAFFNSSRAQQGEVMRLACRLDPKTSFQMAGEWLKYQLSTFLDAGSVNSCSAVGTGEGSLCSVFSPSFVQWEAMTLFLESVITQMFRTLNREEIPVNDGIELLQMVLNFDTKDPLILSCVLTNVSALFPFVTYRPEFLPQVFSKLFSSVTFETVEESKAPRTRAVRNVRRHACSSIIKMCRDYPQLVLPNFDMLYNHVKQLLSNELLLTQMEKCALMEALVLISNQFKNYERQKVFLEELMAPVASIWLSQDMHRVLSDVDAFIAYVGTDQKSCDPGLEDPCGLNRARMSFCVYSILGVVKRTCWPTDLEEAKAGGFVVGYTSSGNPIFRNPCTEQILKLLDNLLALIRTHNTLYAPEMLAKMAEPFTKALDMLDAEKSAILGLPQPLLELNDSPVFKTVLERMQRFFSTLYENCFHILGKAGPSMQQDFYTVEDLATQLLSSAFVNLNNIPDYRLRPMLRVFVKPLVLFCPPEHYEALVSPILGPLFTYLHMRLSQKWQVINQRSLLCGEDEAADENPESQEMLEEQLVRMLTREVMDLITVCCVSKKGADHSSAPPADGDDEEMMATEVTPSAMAELTDLGKCLMKHEDVCTALLITAFNSLAWKDTLSCQRTTSQLCWPLLKQVLSGTLLADAVTWLFTSVLKGLQMHGQHDGCMASLVHLAFQIYEALRPRYLEIRAVMEQIPEIQKDSLDQFDCKLLNPSLQKVADKRRKDQFKRLIAGCIGKPLGEQFRKEVHIKNLPSLFKKTKPMLETEVLDNDGGGLATIFEP

Experiments:
[1] = system: GFP-14-3-3β and its binding proteins; assay: GFP-14-3-3β co-IP with LC-MS/MS label-free quantification, untreated versus PP1c-treated; parameters: species or system human; conditions: pairwise comparison PP1 vs untreated
GFP-14-3-3β = GFP-14-3-3β co-IP with LC-MS/MS, untreated GFP-14-3-3β versus GFP control (14-3-3 interactome); assay type: binding, human; conditions: pairwise comparison untreated vs GFP
[2] = log2 difference, label-free quantification, 3 replicates each

Molecule	Difference (log2), PP1 vs untreated [1]	Difference (log2), untreated vs GFP (GFP-14-3-3β)	Difference (log2), PP1 vs untreated [1, 2]	Difference (log2), untreated vs GFP (GFP-14-3-3β; [2])
B1	0.1784 log2	-0.2958 log2		
B2	0.1821 log2	0.6541 log2		
B3	0.1978 log2	0.7048 log2		
B4			2.053	0.5274
B5	0.177 log2	1.1372 log2		
